These results are taken from patent US20170165339A1 (IMMATICS BIOTECHNOLOGIES, published 2017).

This test addresses HLA-A*02 (human). The experiment in a line: UV peptide-exchange ELISA, yield grade. On the technique in general: In an ELISA, binding on a coated surface is turned into a signal by an enzyme label.
ALFENTPKA [ALFENTPKA (SEQ ID NO: 41)] had a peptide exchange yield of 20 to 49%.
The figure for FLTAINYLL [FLTAINYLL (SEQ ID NO: 72)] is 50 to 75%; for YLLDPSITL [YLLDPSITL (SEQ ID NO: 29)] it is 50 to 75%; for VLIDPQWVLTA [VLIDPQWVLTA (SEQ ID NO: 40)] it is 50 to 75%.
The figure for ALSPSYLTV [ALSPSYLTV (SEQ ID NO: 11)] is 50 to 75%; for ALFDSLRHV [ALFDSLRHV (SEQ ID NO: 6)] it is 50 to 75%.
The figure for ALMAMLVYV [ALMAMLVYV (SEQ ID NO: 13)] is 20 to 49%.
Consider SLFSDEFKV [SLFSDEFKV (SEQ ID NO: 23)], for which the peptide exchange yield was 50 to 75%.
The figure for AVIKFLELL [AVIKFLELL (SEQ ID NO: 75)] is 50 to 75%; for YIKTELISV [YIKTELISV (SEQ ID NO: 33)] it is 50 to 75%.
Consider YLLPLLPAL [YLLPLLPAL (SEQ ID NO: 58)], for which the peptide exchange yield was 50 to 75%.
The figure for FVDPNTQEKV [FVDPNTQEKV (SEQ ID NO: 22)] is 20 to 49%.
Molecule SLADTNSLAVV [SLADTNSLAVV (SEQ ID NO: 36)] had a peptide exchange yield of 50 to 75%.
The figure for VQLDSIEDLEV [VQLDSIEDLEV (SEQ ID NO: 32)] is 50 to 75%; for LLYPEPWSV [LLYPEPWSV (SEQ ID NO: 1)] it is ≥ 75%.
The figure for VLHSKFWVV [VLHSKFWVV (SEQ ID NO: 71)] is 50 to 75%; for ALNPELVQA [ALNPELVQA (SEQ ID NO: 62)] it is 20 to 49%; for SVVPDVRSV [SVVPDVRSV (SEQ ID NO: 65)] it is 20 to 49%.
The figure for LLFSRLCGA [LLFSRLCGA (SEQ ID NO: 51)] is ≥ 75%; for ILFHGVFYA [ILFHGVFYA (SEQ ID NO: 50)] it is 50 to 75%.
As to YTLREVDTV [YTLREVDTV (SEQ ID NO: 73)], the peptide exchange yield fell in the range of 20 to 49%.
As for FLHDEKEGIYI [FLHDEKEGIYI (SEQ ID NO: 56)], the figure is 50 to 75%; as for AIQDEIRSV [AIQDEIRSV (SEQ ID NO: 21)], 50 to 75%; as for TMDSVLVTV [TMDSVLVTV (SEQ ID NO: 25)], 50 to 75%.
ALLERGELFV [ALLERGELFV (SEQ ID NO: 47)] had a peptide exchange yield of 50 to 75%.
The figure for ALQEELTEL [ALQEELTEL (SEQ ID NO: 26)] is 50 to 75%.
The figure for LLLGDSALYL [LLLGDSALYL (SEQ ID NO: 70)] is 50 to 75%.
As for FLLATEVVTV [FLLATEVVTV (SEQ ID NO: 34)], the figure is ≥ 75%.
For the molecule TLFGYSVVL [TLFGYSVVL (SEQ ID NO: 74)], the peptide exchange yield lay within 50 to 75%.
The figure for TLDEKVAEL [TLDEKVAEL (SEQ ID NO: 24)] is 50 to 75%; for ALFAPLVHL [ALFAPLVHL (SEQ ID NO: 60)] it is 50 to 75%.
The figure for FLAVGLVDV [FLAVGLVDV (SEQ ID NO: 69)] is 50 to 75%; for GLLPLLHRA [GLLPLLHRA (SEQ ID NO: 12)] it is ≥ 75%.
The figure for KLEENGDLYL [KLEENGDLYL (SEQ ID NO: 3)] is ≥ 75%.
Turning to TITETTVEV [TITETTVEV (SEQ ID NO: 31)], the peptide exchange yield is 50 to 75%.
Molecule FLGPRIIGL [FLGPRIIGL (SEQ ID NO: 38)] yielded a peptide exchange yield of 50 to 75%.
As for ILAPFSVDL [ILAPFSVDL (SEQ ID NO: 37)], the figure is 50 to 75%; as for SLFETAWEA [SLFETAWEA (SEQ ID NO: 44)], 50 to 75%; as for ALNIATHVL [ALNIATHVL (SEQ ID NO: 49)], 50 to 75%.
As for KLLDPQEFTL [KLLDPQEFTL (SEQ ID NO: 59)], the figure is 50 to 75%.
With TLLQRLTEV [TLLQRLTEV (SEQ ID NO: 67)], the peptide exchange yield is 50 to 75%.
The figure for KMVGLVVAI [KMVGLVVAI (SEQ ID NO: 53)] is 50 to 75%.
The figure for AMIEEVFEA [AMIEEVFEA (SEQ ID NO: 30)] is 20 to 49%.
As for FLLPFSTVYL [FLLPFSTVYL (SEQ ID NO: 35)], the figure is 50 to 75%.
AIVKEIVNI [AIVKEIVNI (SEQ ID NO: 61)] came in with a peptide exchange yield of 20 to 49%.
With TVFTDHMLTV [TVFTDHMLTV (SEQ ID NO: 57)], the peptide exchange yield was in the range of 20 to 49%.
The figure for ILLDLTDNRL [ILLDLTDNRL (SEQ ID NO: 18)] is 50 to 75%; for SQIPAQPSV [SQIPAQPSV (SEQ ID NO: 63)] it is 20 to 49%; for KLIFSVEAV [KLIFSVEAV (SEQ ID NO: 66)] it is 50 to 75%.
SQFPLPLAV [SQFPLPLAV (SEQ ID NO: 46)] registered a peptide exchange yield of 20 to 49%.
The figure for QVIEDSTGV [QVIEDSTGV (SEQ ID NO: 48)] is 20 to 49%.
As for SLPNGKPVSV [SLPNGKPVSV (SEQ ID NO: 28)], the figure is 50 to 75%; as for KLMPGTYTL [KLMPGTYTL (SEQ ID NO: 4)], ≥ 75%.
GLSQITNQL [GLSQITNQL (SEQ ID NO: 20)] registered a peptide exchange yield of 50 to 75%.
On to ILAKDLFEI [ILAKDLFEI (SEQ ID NO: 14)], for which the peptide exchange yield was ≥ 75%.
The figure for RLMEENWNA [RLMEENWNA (SEQ ID NO: 27)] is 50 to 75%; for GIAGSLKTV [GIAGSLKTV (SEQ ID NO: 10)] it is 50 to 75%; for LLDSVSRL [LLDSVSRL (SEQ ID NO: 42)] it is < 20%.
The figure for YTLDIPVLFGV [YTLDIPVLFGV (SEQ ID NO: 16)] is ≥ 75%.
As for SLATKIVEA [SLATKIVEA (SEQ ID NO: 55)], the figure is 50 to 75%; as for HLLEGSVGV [HLLEGSVGV (SEQ ID NO: 39)], 50 to 75%.
VLNPLITAV [VLNPLITAV (SEQ ID NO: 54)] registered a peptide exchange yield of 50 to 75%.
The figure for SLFPDSLIV [SLFPDSLIV (SEQ ID NO: 64)] is 20 to 49%.
The molecule FLVDGSYSI [FLVDGSYSI (SEQ ID NO: 9)] returned a peptide exchange yield of 50 to 75%.
As for YLDLSHNQL [YLDLSHNQL (SEQ ID NO: 15)], the figure is 50 to 75%.
For ILDHEVPSL [ILDHEVPSL (SEQ ID NO: 7)], the peptide exchange yield is 50 to 75%.
As for SLSNRLYYL [SLSNRLYYL (SEQ ID NO: 68)], the figure is 50 to 75%; as for GIVAHIQEV [GIVAHIQEV (SEQ ID NO: 5)], 50 to 75%; as for SISDNVWEV [SISDNVWEV (SEQ ID NO: 19)], 50 to 75%.
